Reference: the supplement of paper PMC9116672
± gives the standard deviation of the averaged measurements or the uncertainty stated by the source.

What was measured:
[1] = duplex formation free energy ΔG50 (Van't Hoff fit of HRM Tm); higher = less stable duplex; settings: temperature for dG: 50 °C, NaCl: 500 mM (unadjusted)
Method in brief: (§1)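 Four replicate samples of each duplex, annealed 1:1 from phosphodiester or phosphorothioate strands (the latter mixed Rp/Sp), were melted at 1–20 μM in 1× NNE buffer (500 mM NaCl, pH 7.0) with 1× EvaGreen, heating from 37 to 97°C at 0.1°C/s on a LightCycler96. Tm is the peak of -dF/dT, and a linear Van't Hoff regression of 1/Tm against ln(CT/4) gives enthalpy, entropy and extrapolated free energy, with no salt adjustment and errors given as fit standard deviations. The free energy extrapolation is to 50°C.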

[2] = duplex melting temperature (HRM, EvaGreen); higher = more stable duplex
Method in brief: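 After 1:1 annealing at 25 μM, complementary phosphodiester or phosphorothioate strands (Rp/Sp mixtures) were brought to 1–20 μM duplex in NNE buffer (500 mM NaCl, pH 7.0) with 1× EvaGreen and heated at 0.1°C/s from 37°C to 97°C while a LightCycler96 monitored fluorescence (470/514 nm). The melting temperature is the negative dF/dT peak reported by the instrument software, averaged over replicates with a clear peak.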

[3] = duplex formation enthalpy ΔH (Van't Hoff fit of HRM Tm); higher = less exothermic duplex formation; settings: temperature for dG: 50 °C, NaCl: 500 mM (unadjusted)
Method in brief: as §1

[4] = duplex formation entropy ΔS (Van't Hoff fit of HRM Tm); higher = smaller entropy loss on duplex formation; settings: temperature for dG: 50 °C, NaCl: 500 mM (unadjusted)
Method in brief: as §1

[5] = backbone: PO-PO (both strands phosphodiester DNA)
[6] = backbone: PS-PO (listed strand fully phosphorothioate, complement phosphodiester)
[7] = backbone: PS-PS (both strands fully phosphorothioate)
[8] = duplex concentration 1 µM, backbone: PO-PO (both strands phosphodiester DNA)
[9] = duplex concentration 1 µM, backbone: PS-PO (listed strand fully phosphorothioate, complement phosphodiester)
[10] = duplex concentration 1 µM, backbone: PS-PS (both strands fully phosphorothioate)
[11] = duplex concentration 2.5 µM, backbone: PO-PO (both strands phosphodiester DNA)
[12] = duplex concentration 2.5 µM, backbone: PS-PO (listed strand fully phosphorothioate, complement phosphodiester)
[13] = duplex concentration 2.5 µM, backbone: PS-PS (both strands fully phosphorothioate)
[14] = duplex concentration 5 µM, backbone: PO-PO (both strands phosphodiester DNA)
[15] = duplex concentration 5 µM, backbone: PS-PO (listed strand fully phosphorothioate, complement phosphodiester)
[16] = duplex concentration 5 µM, backbone: PS-PS (both strands fully phosphorothioate)
[17] = duplex concentration 7.5 µM, backbone: PO-PO (both strands phosphodiester DNA)
[18] = duplex concentration 7.5 µM, backbone: PS-PO (listed strand fully phosphorothioate, complement phosphodiester)
[19] = duplex concentration 7.5 µM, backbone: PS-PS (both strands fully phosphorothioate)
[20] = duplex concentration 10 µM, backbone: PO-PO (both strands phosphodiester DNA)
[21] = duplex concentration 10 µM, backbone: PS-PO (listed strand fully phosphorothioate, complement phosphodiester)
[22] = duplex concentration 10 µM, backbone: PS-PS (both strands fully phosphorothioate)
[23] = duplex concentration 15 µM, backbone: PO-PO (both strands phosphodiester DNA)
[24] = duplex concentration 15 µM, backbone: PS-PO (listed strand fully phosphorothioate, complement phosphodiester)
[25] = duplex concentration 15 µM, backbone: PS-PS (both strands fully phosphorothioate)
[26] = duplex concentration 20 µM, backbone: PO-PO (both strands phosphodiester DNA)
[27] = duplex concentration 20 µM, backbone: PS-PO (listed strand fully phosphorothioate, complement phosphodiester)
[28] = duplex concentration 20 µM, backbone: PS-PS (both strands fully phosphorothioate)

Row | Sequence | duplex formation free energy ΔG50 [1, 5] | duplex formation free energy ΔG50 [1, 6] | duplex formation free energy ΔG50 [1, 7] | duplex melting temperature [2, 8] | duplex melting temperature [2, 9] | duplex melting temperature [2, 10] | duplex melting temperature [2, 11] | duplex melting temperature [2, 12] | duplex melting temperature [2, 13] | duplex melting temperature [2, 14] | duplex melting temperature [2, 15] | duplex melting temperature [2, 16] | duplex melting temperature [2, 17] | duplex melting temperature [2, 18] | duplex melting temperature [2, 19] | duplex melting temperature [2, 20] | duplex melting temperature [2, 21] | duplex melting temperature [2, 22] | duplex melting temperature [2, 23] | duplex melting temperature [2, 24] | duplex melting temperature [2, 25] | duplex melting temperature [2, 26] | duplex melting temperature [2, 27] | duplex melting temperature [2, 28] | duplex formation enthalpy ΔH [3, 5] | duplex formation enthalpy ΔH [3, 6] | duplex formation enthalpy ΔH [3, 7] | duplex formation entropy ΔS [4, 5] | duplex formation entropy ΔS [4, 6] | duplex formation entropy ΔS [4, 7]
1 | TATTCTGCCAATGGAAC | -12.43 ± 0.11 kcal/mol | -10.59 ± 0.059 kcal/mol | -8.755 ± 0.02 kcal/mol | 61.28 ± 0.28 °C | 52.9 °C | 45.3 ± 0.74 °C | 63.72 ± 0.46 °C | 56.19 ± 0.12 °C | 48.29 ± 0.081 °C | 65.46 ± 0.21 °C | 58.32 ± 0.085 °C | 50.06 ± 0.16 °C | 66.751 ± 0.054 °C | 59.47 ± 0.085 °C | 51.303 ± 0.046 °C | 67.63 ± 0.082 °C | 60.21 ± 0.12 °C | 52.24 ± 0.13 °C | 68.883 ± 0.048 °C | 61.27 ± 0.062 °C | 53.39 ± 0.22 °C | 69.87 ± 0.1 °C | 62.27 ± 0.081 °C | 54.28 ± 0.14 °C | -79.9 ± 2.2 kcal/mol | -75.2 ± 2 kcal/mol | -69.8 ± 2.2 kcal/mol | -209 ± 6.6 cal/mol/K | -200 ± 6.1 cal/mol/K | -189 ± 6.7 cal/mol/K
2 | AGACATCCCATACGAGCATCCA | -17.5 ± 0.61 kcal/mol | -16.1 ± 0.3 kcal/mol | -12.13 ± 0.08 kcal/mol | 74.67 ± 0.5 °C | 67.6 ± 0.69 °C | 58.4 ± 0.91 °C | 75.64 ± 0.58 °C | 69.1 ± 0.53 °C | 60.9 ± 0.71 °C | 77.03 ± 0.46 °C | 70.2 ± 0.62 °C | 62.6 ± 0.4 °C | 78.03 ± 0.27 °C | 71.19 ± 0.51 °C | 63.56 ± 0.19 °C | 79.049 ± 0.057 °C | 71.87 ± 0.23 °C | 64.391 ± 0.055 °C | 79.985 ± 0.077 °C | 72.68 ± 0.15 °C | 65.3 ± 0.086 °C | 80.728 ± 0.069 °C | 73.314 ± 0.051 °C | 65.89 ± 0.11 °C | -112 ± 7.7 kcal/mol | -124 ± 4.9 kcal/mol | -90.8 ± 2 kcal/mol | -292 ± 22 cal/mol/K | -333 ± 14 cal/mol/K | -243 ± 6 cal/mol/K
3 | TTTGGGTTAGTAAGAAGGCAGCAGTTGGGC | -26.6 ± 0.73 kcal/mol | -20.7 ± 0.54 kcal/mol | -15.88 ± 0.14 kcal/mol | 80.77 ± 0.16 °C | 73.49 ± 0.58 °C | 64.9 ± 0.6 °C | 81.98 ± 0.11 °C | 74.54 ± 0.53 °C | 66.58 ± 0.4 °C | 82.782 ± 0.065 °C | 75.49 ± 0.43 °C | 67.7 ± 0.32 °C | 83.39 ± 0.22 °C | 76.34 ± 0.31 °C | 68.34 ± 0.25 °C | 83.787 ± 0.08 °C | 76.74 ± 0.24 °C | 68.92 ± 0.12 °C | 84.24 ± 0.16 °C | 77.38 ± 0.2 °C | 69.54 ± 0.097 °C | 85 °C | 77.939 ± 0.056 °C | 70.01 ± 0.096 °C | -194 ± 7.9 kcal/mol | -163 ± 7.3 kcal/mol | -138 ± 2.7 kcal/mol | -517 ± 22 cal/mol/K | -439 ± 21 cal/mol/K | -377 ± 7.9 cal/mol/K
